Reference: the supplement of paper PMC9112550, “Optimization of the antimicrobial peptide Bac7 by deep mutational scanning” (BMC Biology, 2022)

Tested on: Escherichia coli TOP10
Test: shrunken log2 fold change of peptide-encoding DNA abundance (4.5 h post-induction vs induction); higher = less antimicrobial activity (less host growth inhibition)
Conditions: time post-induction: 4.5 h; library: site-saturation at positions 5, 18, 19, 20
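Note: peptides expressed intracellularly from a pBAD plasmid library in pooled LB shake-flask culture, induced with 0.3% L-arabinose, DNA abundance read by NGS, three biological replicates, DESeq2 with apeglm shrinkage.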

## RRIRRRPPRLPRPRPRPPDDPRP
  shrunken log2 fold change: 0.743

## RRIRTRPPRLPRPRPRPAHRPRP
  shrunken log2 fold change: 0.0856

## RRIRTRPPRLPRPRPRPCMYPRP
  shrunken log2 fold change: -0.183

## RRIRQRPPRLPRPRPRPCGEPRP
  shrunken log2 fold change: -0.0396

## RRIRYRPPRLPRPRPRPGYLPRP
  shrunken log2 fold change: -0.33

## RRIRMRPPRLPRPRPRPVKGPRP
  shrunken log2 fold change: 0.0743

## RRIRPRPPRLPRPRPRPMRQPRP
  shrunken log2 fold change: 0.398

## RRIRLRPPRLPRPRPRPRCLPRP
  shrunken log2 fold change: 0.18

## RRIRGRPPRLPRPRPRPTSHPRP
  shrunken log2 fold change: 0.64

## RRIRDRPPRLPRPRPRPNCAPRP
  shrunken log2 fold change: -0.0166

## RRIRGRPPRLPRPRPRPEECPRP
  shrunken log2 fold change: 0.0881

## RRIRSRPPRLPRPRPRPPARPRP
  shrunken log2 fold change: 0.876

## RRIRHRPPRLPRPRPRPHWIPRP
  shrunken log2 fold change: -0.415

## RRIRDRPPRLPRPRPRPTHCPRP
  shrunken log2 fold change: 0.0452

## RRIRTRPPRLPRPRPRPAWMPRP
  shrunken log2 fold change: 0.307

## RRIRERPPRLPRPRPRPHGQPRP
  shrunken log2 fold change: -0.0165

## RRIRGRPPRLPRPRPRPVNRPRP
  shrunken log2 fold change: -0.0382

## RRIRTRPPRLPRPRPRPLYVPRP
  shrunken log2 fold change: -0.4

## RRIRRRPPRLPRPRPRPIELPRP
  shrunken log2 fold change: -0.192

## RRIRFRPPRLPRPRPRPIPYPRP
  shrunken log2 fold change: -0.102

## RRIRMRPPRLPRPRPRPINEPRP
  shrunken log2 fold change: -0.0839

## RRIRKRPPRLPRPRPRPFNIPRP
  shrunken log2 fold change: 0.186

## RRIRCRPPRLPRPRPRPSMTPRP
  shrunken log2 fold change: -0.178

## RRIRARPPRLPRPRPRPGSMPRP
  shrunken log2 fold change: 0.135

## RRIRCRPPRLPRPRPRPHWRPRP
  shrunken log2 fold change: 0.382

## RRIRLRPPRLPRPRPRPSFWPRP
  shrunken log2 fold change: 0.0795

## RRIRHRPPRLPRPRPRPQLLPRP
  shrunken log2 fold change: -0.197

## RRIRDRPPRLPRPRPRPEWLPRP
  shrunken log2 fold change: 0.382

## RRIRKRPPRLPRPRPRPGCYPRP
  shrunken log2 fold change: 0.144

## RRIRDRPPRLPRPRPRPTPWPRP
  shrunken log2 fold change: 0.66

## RRIRCRPPRLPRPRPRPWTLPRP
  shrunken log2 fold change: -0.282

## RRIRFRPPRLPRPRPRPTQEPRP
  shrunken log2 fold change: 0.321

## RRIRDRPPRLPRPRPRPQGNPRP
  shrunken log2 fold change: -0.0306

## RRIRKRPPRLPRPRPRPDMKPRP
  shrunken log2 fold change: -0.0241

## RRIRERPPRLPRPRPRPNAWPRP
  shrunken log2 fold change: 0.113

## RRIRNRPPRLPRPRPRPNVIPRP
  shrunken log2 fold change: -0.261

## RRIRRRPPRLPRPRPRPGDAPRP
  shrunken log2 fold change: 0.782

## RRIRCRPPRLPRPRPRPDFLPRP
  shrunken log2 fold change: -0.657

## RRIRARPPRLPRPRPRPANVPRP
  shrunken log2 fold change: -0.0645

## RRIRHRPPRLPRPRPRPITPPRP
  shrunken log2 fold change: -0.538

## RRIRCRPPRLPRPRPRPMSAPRP
  shrunken log2 fold change: -0.0757

## RRIRMRPPRLPRPRPRPHAYPRP
  shrunken log2 fold change: 0.0623

## RRIRNRPPRLPRPRPRPLMHPRP
  shrunken log2 fold change: -0.0721

## RRIRIRPPRLPRPRPRPGCAPRP
  shrunken log2 fold change: 0.185

## RRIRGRPPRLPRPRPRPIKSPRP
  shrunken log2 fold change: 0.326

## RRIRMRPPRLPRPRPRPVTPPRP
  shrunken log2 fold change: 0.614

## RRIRIRPPRLPRPRPRPGQLPRP
  shrunken log2 fold change: 0.0335

## RRIRFRPPRLPRPRPRPRLPPRP
  shrunken log2 fold change: 1.13

## RRIRIRPPRLPRPRPRPQNKPRP
  shrunken log2 fold change: -0.668

## RRIRFRPPRLPRPRPRPSPGPRP
  shrunken log2 fold change: -0.101

## RRIRNRPPRLPRPRPRPLHNPRP
  shrunken log2 fold change: -0.503

## RRIRRRPPRLPRPRPRPPFWPRP
  shrunken log2 fold change: 0.959

## RRIRARPPRLPRPRPRPYNAPRP
  shrunken log2 fold change: -1.2

## RRIRPRPPRLPRPRPRPDTPPRP
  shrunken log2 fold change: 0.0412

## RRIRKRPPRLPRPRPRPVCRPRP
  shrunken log2 fold change: 0.245

## RRIRPRPPRLPRPRPRPAFHPRP
  shrunken log2 fold change: 0.189

## RRIRCRPPRLPRPRPRPSQSPRP
  shrunken log2 fold change: -0.221

## RRIRCRPPRLPRPRPRPVWSPRP
  shrunken log2 fold change: -0.119

## RRIRVRPPRLPRPRPRPWVAPRP
  shrunken log2 fold change: -0.00183

## RRIRARPPRLPRPRPRPIYLPRP
  shrunken log2 fold change: -0.152

## RRIRKRPPRLPRPRPRPPPRPRP
  shrunken log2 fold change: 1.32

## RRIRHRPPRLPRPRPRPGSIPRP
  shrunken log2 fold change: -0.209

## RRIRDRPPRLPRPRPRPFSWPRP
  shrunken log2 fold change: 0.198

## RRIRQRPPRLPRPRPRPPSEPRP
  shrunken log2 fold change: -0.0213

## RRIRQRPPRLPRPRPRPVLFPRP
  shrunken log2 fold change: 0.166

## RRIRPRPPRLPRPRPRPFWIPRP
  shrunken log2 fold change: -0.161

## RRIRGRPPRLPRPRPRPLWPPRP
  shrunken log2 fold change: 0.836

## RRIRVRPPRLPRPRPRPETMPRP
  shrunken log2 fold change: 0.0389

## RRIRSRPPRLPRPRPRPPEGPRP
  shrunken log2 fold change: 0.704

## RRIRKRPPRLPRPRPRPFQLPRP
  shrunken log2 fold change: 0.0661

## RRIRTRPPRLPRPRPRPLKAPRP
  shrunken log2 fold change: 0.0363

## RRIRNRPPRLPRPRPRPANDPRP
  shrunken log2 fold change: -0.392

## RRIRIRPPRLPRPRPRPMIIPRP
  shrunken log2 fold change: -0.295

## RRIRMRPPRLPRPRPRPQMSPRP
  shrunken log2 fold change: 0.174

## RRIRNRPPRLPRPRPRPEIHPRP
  shrunken log2 fold change: 0.116

## RRIRDRPPRLPRPRPRPLAYPRP
  shrunken log2 fold change: 0.0112

## RRIRYRPPRLPRPRPRPYTQPRP
  shrunken log2 fold change: -0.273

## RRIRFRPPRLPRPRPRPLWTPRP
  shrunken log2 fold change: -0.0265

## RRIRPRPPRLPRPRPRPQSTPRP
  shrunken log2 fold change: -0.136

## RRIRPRPPRLPRPRPRPPWRPRP
  shrunken log2 fold change: 0.558

## RRIRHRPPRLPRPRPRPYGQPRP
  shrunken log2 fold change: -0.00191

## RRIRIRPPRLPRPRPRPCCMPRP
  shrunken log2 fold change: -0.614

## RRIRVRPPRLPRPRPRPRMDPRP
  shrunken log2 fold change: -0.371

## RRIRNRPPRLPRPRPRPGEDPRP
  shrunken log2 fold change: -0.376

## RRIRMRPPRLPRPRPRPALGPRP
  shrunken log2 fold change: 0.625

## RRIRVRPPRLPRPRPRPNEQPRP
  shrunken log2 fold change: -0.232

## RRIRMRPPRLPRPRPRPSVDPRP
  shrunken log2 fold change: 0.508

## RRIRWRPPRLPRPRPRPAASPRP
  shrunken log2 fold change: 0.404

## RRIRGRPPRLPRPRPRPDIWPRP
  shrunken log2 fold change: 0.598

## RRIRVRPPRLPRPRPRPIWDPRP
  shrunken log2 fold change: 0.0206

## RRIRNRPPRLPRPRPRPYGNPRP
  shrunken log2 fold change: -0.287

## RRIRMRPPRLPRPRPRPLCEPRP
  shrunken log2 fold change: 0.653

## RRIRNRPPRLPRPRPRPWVVPRP
  shrunken log2 fold change: 0.0152

## RRIRERPPRLPRPRPRPRWRPRP
  shrunken log2 fold change: 0.706

## RRIRKRPPRLPRPRPRPRMGPRP
  shrunken log2 fold change: 0.149

## RRIRWRPPRLPRPRPRPKYTPRP
  shrunken log2 fold change: -0.315

## RRIRGRPPRLPRPRPRPESKPRP
  shrunken log2 fold change: 1.32

## RRIRRRPPRLPRPRPRPESNPRP
  shrunken log2 fold change: 0.219

## RRIRYRPPRLPRPRPRPYPYPRP
  shrunken log2 fold change: -0.0257

## RRIRSRPPRLPRPRPRPHNGPRP
  shrunken log2 fold change: 0.00483

## RRIRDRPPRLPRPRPRPVEAPRP
  shrunken log2 fold change: 0.441

## RRIRRRPPRLPRPRPRPQGCPRP
  shrunken log2 fold change: -0.189

## RRIRLRPPRLPRPRPRPEIHPRP
  shrunken log2 fold change: -0.269

## RRIRERPPRLPRPRPRPNGLPRP
  shrunken log2 fold change: -0.0319

## RRIRTRPPRLPRPRPRPKWIPRP
  shrunken log2 fold change: -0.232

## RRIRARPPRLPRPRPRPKMMPRP
  shrunken log2 fold change: 0.105

## RRIRFRPPRLPRPRPRPATWPRP
  shrunken log2 fold change: 0.317

## RRIRERPPRLPRPRPRPNHVPRP
  shrunken log2 fold change: -0.25

## RRIRTRPPRLPRPRPRPCMSPRP
  shrunken log2 fold change: -0.196

## RRIRSRPPRLPRPRPRPMQPPRP
  shrunken log2 fold change: 0.0538

## RRIRSRPPRLPRPRPRPWCHPRP
  shrunken log2 fold change: -0.4

## RRIRTRPPRLPRPRPRPISYPRP
  shrunken log2 fold change: 0.061

## RRIRYRPPRLPRPRPRPNSCPRP
  shrunken log2 fold change: 0.0432

## RRIRTRPPRLPRPRPRPKPFPRP
  shrunken log2 fold change: 0.122

## RRIRLRPPRLPRPRPRPVVQPRP
  shrunken log2 fold change: 0.0325

## RRIRLRPPRLPRPRPRPSMIPRP
  shrunken log2 fold change: -1.02

## RRIRNRPPRLPRPRPRPFRYPRP
  shrunken log2 fold change: -0.591

## RRIRTRPPRLPRPRPRPDGYPRP
  shrunken log2 fold change: -0.0637

## RRIRHRPPRLPRPRPRPQQSPRP
  shrunken log2 fold change: -0.0132

## RRIRSRPPRLPRPRPRPEEWPRP
  shrunken log2 fold change: -0.0481

## RRIRERPPRLPRPRPRPPMTPRP
  shrunken log2 fold change: -0.163

## RRIRMRPPRLPRPRPRPLNHPRP
  shrunken log2 fold change: -0.0957

## RRIRVRPPRLPRPRPRPKMLPRP
  shrunken log2 fold change: -0.13

## RRIRARPPRLPRPRPRPNRGPRP
  shrunken log2 fold change: 0.108

## RRIRIRPPRLPRPRPRPFYRPRP
  shrunken log2 fold change: -0.194
